We go through 33 sequences from the NTF2 design screens of Basanta et al. (2020).

A short description of this data set: protease stability score; higher = more stable; yeast display proteolysis, trypsin and chymotrypsin.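 Note: relative to predicted unfolded state with 0 unfolded-like and 1 meaning tenfold more protease.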
“DEERKELEEALRELKHSWETGDWRSLSEMADPNVLLKQGDFEYHGRELFLEFMRHLIEHLGIKHVEIRDMKIFENRVDMDVIIRFNGQTTRIQIILVKFNGRWFIKSVIIR” showed a protease stability score of 2.02.
For “SEVHEQIEEIFREFMHMLLTGDWKRLTELADPHVRLEFDGREFHGREELVRRLLELGFKHQHLHDMRIHNFDGRVYMHTDTRVHVDGKHVIVRLELIVNKFNGQWYVHSLRIEVQ” the value was 0.343.
Then “GEEQEDIKKFLEDDMEAWSTGDFRQLKRNMDPHVRIVINGRHLHGMETFEHFFEHLRVRITSLELKRVEAVGDKVSYDGELDFELDYNGRRLSQRTRVEFRIEKINGRWILHYVIFR”, with 0.329; and “DDIKEETDHLVDLLMEDIITGNERRLSHLADPNVRFTVGDWHSHGRKEMVEALRFTLDRADHVEYQPHRIENQGDKATAVIRVKLEYNGRTEEFRLIFTMEKIDGKWIVHKIFYR”, with 0.976.
“DEDEEEAEERVKEWIKALRTGDEDHILELVDPNDRFIINGVHLHGREFLLRWLRELRVDDVEVKTIKFVDGVAHVDTKMRVTVDGRETELETRLIWKKFDGRWFIESHRIR” registered a protease stability score of 1.62.
Then “DEDETFMREFLKELIHSLHTGDEETLLRLADPHTRVVINGRTLIGWETFDKLLKEARVHHHEIKRVRFFDGQVETDTRTDGRIDGVRVEIETTLIVKKVNGRWYMRSVIIT”, with 0.686.
Then “DEEKDIMERIADLMLELSETGDEHTYKRMADPNVRLRFNGVDIHGMDNISKYLKEFFERIDHVEFEIKDFRSFDGRYNNRGLLILNVGDKRIIIDITIRVEVVNGRVKERQVDID”, with 0.749.
For “DEHDERMESVLRHLWHNWKTGDEDRLAELADPNTRTNINGKNFHGWEYMVREFSRFLKHIRIQDLKIRDFRVIDGRAISDVIVHGEVDGKDIDVKTRVELIIINGRFHTLSFTFE” the value was 1.3.
“DEEDKHLQEMVEKLVKNWLTGDWDKLRELLDPNTKSNIGEYTSIGWEKDAEAFEKLIHELGIKHMNFLIRRIHVVDGRAHSDVEIELEVDGRNTEVKTHLIVVIINGRVKSITVEYK” displayed a protease stability score of 0.297.
As to “DEDEKIIEDIIRKIWLAFMTGDEELYERLADPEDRLEVGEKTAVGREDVRRALHEWIRKLGIKHSHTRHMDFQGDKLIIHGEMLFNGRTFDLQLEFNVVNGRLKSMHVRIR”, the protease stability score is 1.58.
Then “SDEEEILRRLMQEYYEIFFTGNEEFLHRLADPHVRFLVNGQWYHGREQFTRMFVELLEKLGAKHIELDRHTVRIIDGRIEIIIHTTIKVDGKEHTMHIIVNVEKINGRWILRSMEMEVR”, with 1.34; and “THEERLYREAMELEREVWETGDEHLIRDMVDPNVRFEINGVNTHGREEMARFVHEFGVDHIHIDHLQRINGRLEVRGKFQVGDKWVRTRFISTKINGRWFVESVHVR”, with 0.626; and “DELEKLLKLAMEMSLKLFETGDEESLHRLIDPHVRMEIVQGDKFIELHGREDVVRAMKEFRKKFPNLKVELEDHDIQGDKVIWHSVIHVGDKELELIIISLKFDGRWVLESVELKHR”, with 1.4.
Then “NEEKEEAERFTRQFLHSWRTGDEESLKRMADPNVRIIVGDYEKVGWEAIEETIKRLGIDHLEYHSVHVHVIGDKVNIHSDVRIQVNGQERDVQIHVHMRKINGRWFVESIRLNFH”, with 1.26; and “EDEERETEEAIRLFIKNEITGDWKRLLHYLDPNVRVRIGDKEIHGMERWKDEFKQEIDRVKGLRYELDDERRHLVDGKIEIILDFTIHVGEKRHRFQLVLILVKVNGRWIMHSIHVNYL”, with 1.54.
For “DEEEETLREMLRMSKEALETGDETELHELFDPNVRVVVDGVTLHGWEAWSQFLREIRLSIREVRIKRVDRVDGKIIIDGKFHRIIIQGDKTRENTIDAEVLIRKVDGKWVYEHDSYL” the value was 0.823.
As for “DEEERFAEEAVEIIIRDWMTGDEELLHRNADPHMRIEVGDKTIHGMENFVKFLLEIRMKDSRLRVEDVKHYNGKLHLTFKSEVDGRVNGRRKTLTFDIKMIIEKVDGRWILKTIHIV”, the protease stability score was 1.89.
For “DELTHAVTRFHKETMDAVRTGNEEWHSRLLDPNTRIHIGEFNNVGMEQVIEILRRVKNLRIHHVHLDHIDFYDGRADIHGTVHGIWNGRHRKVKHEHFLLKIDGVWYLEEIRVE” the value was 0.371; for “DEEDKNTHEFARRIIESWVTGDWKDLHELIDPHARLILDVGNKKEIYHGREEVKRRLLREIEKFKNVRFEIRDLHVVGDKVDAEVTLHIDGKDIEIHIHLLIVNGKVKEIRLHYH”, 2.27.
As to “SEEEELEERLTRYWLHAFWTGDWEHLKEMADPDARHRLHFENHTESVHGREYLVLIYVRIIRNLGFKHLEIDHVRVVDGVFRIHGILEVNGRKQRVHIIVVIVNGRLRELVLIFG”, the protease stability score was found to be 1.41.
Sequence “DELRKEAEEHAQHLLDLFDTGDWDRISELADPNTLVIIDINGVHINNVGWEEIRKLWEITRHHLRIEERRVESSRTFENRVELDVKDHIKVGNKKINLDSHITIDVVNGQMKRVDFQLR” gave a protease stability score of 2.04.
As for “DEDDKRSEKYLQKLLTDTHTGDETAYRDLADPHVRIEFNGREWHGWKRAHEVFHRILEEMRLKDLRIEDVRKQGEKVRLHIRLHSTVDGKQVDLELEIILLKVNGQWYIKDVTLI”, the protease stability score was determined as 0.886.
Then “DEDEDDAERVFEELRKLIITGDEEEWEKLADPHVRVIINGRELHGREEWARFMRHMRIKNEHVHLRRMRVVDGRIEIDGEMDFRVDFNGQERRTRTDTNLIVTKYDGRWKLHHIEIR”, with 1.33; and “SESDEMAVEMLLRWVENLITGDEHTSQELLDPHVRIIFYIGDKEVHYHGWENAVEFWEEVVRRYDYFHIKFEEITVQGEKVRSKTRLTVIINGQEERYDTKLNAIVVNGRFKSVTIQYD”, with 0.876; and “SELEEEMEKWARDFLRLWFTGDEETTERLFDPHARMDVNGVQNHGWEMMSRQLTHYINHIRIRDLEVETISQQGDKIYVHGQENVEIGDKHLRYHTHIELVIVNGRVQEVRIEVK”, with 0.993.
Then “DEREKRWRKLHQDILEAIWTGDEETFLRLADPDMRFYLIVNGRTVDLHGMELASVVLHERRKRFKNATWHLKSERVQGNYSELNEELIVGDKTYDIRINLVHIDGKLHSVVIEDI”, with 1.01; and “SEEDKLIKDAFTEIHTWIKTGNEEYLERLVDPHVKIIINGRELHGMEFLHEELKRFDHLHLRDHHLESFDIQGNKIVLEGTNDIEIKWNGVRIRTELEIHFFVEKVNGKWIIREFVIV”, with 1.26; and “EEDDEILEKAIRLHEHMLRTGDPREFWELADPHYKLNIGDKHIHGRETLLRHTLHKIEEYGFKHSRFVPKDWELQGDKIHLRGELILHFNGREHRYDYHIEAIKVNGQWVLHRIDIQ”, with 1.23.
Then “NESEELYRIALELKRETDKTGDEEIFRKLMDPSTRLEVDGRIWHGREAVEVFIRRFDHLHRFEVKDTRVFDGQVQIEGELDSTVGDKRLNVHIEVFAIKFDGRWRLKSVRVE”, with 1.58.
In turn, “DEIEHESEEILRMWLHAIKTGDEEFLKQYIDPHAKLDINGVEFHGREHIVRFIVELRMHDHRVQDSRKVGNKVILHTRVDSIIGDKRIDTHVTIIVRKIDGKWRLEEYRVS” displayed a protease stability score of 2.55.
For “DETENSLRTMLHRLLDSIRTGDFRTVDDLADPHVKIDVGDKHIHGREIYRKIVLQADHVESRFHLHDIHNIGNWAHVDGRLINHEVVDGQKIDLDLRIEIIVTKIDGKWTIESVRFE” the value was 1.46; for “NEEEQEILEDVEEHIRAEYTGDEEVLDNLADPNTRIHYGEKELHGREEWLQLVHDEHNRFKGMKIEVIIRHIDIYDGRVRSEGELHIHVGDKEYHVDVQMILTKVNGRWLLTRIHFH”, 0.093; for “SEIDREAEELVHLLAEFVETGNEERWLELLDPHVRLDFDGVISHGREHYIEFWRRLKENLGIDKVSFRVRRRKTQGEKAHSDMETDINGQKYHMEVLVVVINGVVKHSEFHYN”, 1.07.
